Laboratory results as given in publication PMC7677505.

Legend:
[1] = target: Endogenous BAFF (human (endogenous in serum, CSF, cord blood)); experiment: SEC; cord blood sera in Hepes pH 8.2, 30 mM NaCl, 10 ug/ml BSA; fractions lyophilized; ELISA at pH 5.5 and BAFFR:Fas reporter cells with antibody 2.81
[2] = target: Endogenous BAFF (human (endogenous in serum, CSF, cord blood)); experiment: SEC; endogenous BAFF affinity-purified on atacicept from CSF or from serum of a CVID patient, SEC at pH 8.2; ELISA with capture at pH 5.5 and BAFFR:Fas reporter cells
[3] = target: Endogenous BAFF (human (endogenous in serum, CSF, cord blood)); experiment: SEC; adult human sera (normal, CVID, BAFFR-deficient, BTK-deficient) in Hepes pH 8.2, 30 mM NaCl, 10 ug/ml BSA; fractions lyophilized; ELISA at pH 5.5 and BAFFR:Fas reporter cells with antibody 2.81
[4] = target: Endogenous BAFF (human (endogenous in serum, CSF, cord blood)); experiment: SEC; BAFFR-deficient human serum on Superdex S200 Increase in Hepes buffer pH 8.2; BAFF activity of fractions read on BCMA:Fas reporter cells; fractions 15-17 pooled, concentrated and run again
[5] = target: Endogenous BAFF (human (endogenous in serum, CSF, cord blood)); experiment: SEC; 8-fold concentrated pool of CSF of multiple sclerosis patients at pH 8.2, 30 mM NaCl; also after depletion on anti-APRIL mAb 104; ELISA with capture at pH 5.5 and BAFFR:Fas reporter cells

Endogenous BAFF (ligand)
stoichiometry N [1]: 3 | stoichiometry N [2]: 3 | stoichiometry N [3]: 3 | stoichiometry N [4]: 2.7 | stoichiometry N [5]: 3
